Reference: patent US20220011297A1, “METHOD FOR PREDICTING EFFECT OF IMMUNE CHECKPOINT INHIBITOR” (NAGASAKI UNIVERSITY, priority 2018, published 2022)

Test system: lung cancer patients
Experiment: Multicenter study of nivolumab in lung cancer patients: adverse events (interstitial pneumonia)
Description: Multicenter study ([sequence] University Hospital, Nagasaki Genbaku Hospital) [Subjects] Lung cancer patients [Selection criteria]
Employed were patients who had been histologically confirmed to have lung cancer through computed tomography (any T, any N, and M1, stage IV), and
who were 20 to 75 years old with performance status (PS) of 0 and retaining the functions of main tissues, met the study criteria of our institution, and voluntarily submitted a consent form to participate in the study after receiving explanation on the characteristics of the study.
This blood collection is performed concomitantly with regular blood collection during hospitalization, and no additional puncture is performed for the blood collection.

Substance: nivolumab: human-type anti-PD-1 monoclonal antibody
- interstitial pneumonia with DAD (diffuse alveolar damage), acute exacerbation (13 lung cancer patients given nivolumab, other two cases OP): TR01 and TR02 were presenting with DAD
- death (among DAD cases, in spite of discontinuation of administration): one case resulted in death
